Data set [1] can be described thus: Gel electrophoresis of active agent after droplet generation. The class given is physicochemical. The text has this: To determine the stability of active agent after droplet generation, the generated stream of droplets including the active agent is collected and the molecular weight of the active agent is verified using gel electrophoresis.
Data set [2] can be described thus: Size exclusion chromatography (SEC) stability after aerosol generation with test device. The settings on record: for Peak Area %, Peak 1 / Peak Area %, Peak 2 / Peak Area %, Peak 3: Insulin (Humalog Kwikpen 200 U/ml). Type of data set: physicochemical. The text has this:
Alternately, to determine the stability of active agent after droplet generation, the generated stream of droplets including the active agent may be collected and […] may be employed to monitor for any changes in large molecule aggregation and protein fragment content. Soluble protein aggregates and protein fragment content may be calculated by comparing respective peak area under the SEC-HPLC curve of dispensed protein solutions with controls (solutions remaining in the device reservoir). Drug solutions for testing include Enbrel, (ENBREL® single-use prefilled syringes in 25 mg (0.51 mL of a 50 mg/mL solution of etanercept), and insulin, (Humalog, 200 units/ml, 3 ml […] is performed with a YarraTM 3 um SEC-2000 LC column 300×7.8 mm, SecurityGuard cartridge kit and SecurityGuard cartridges GFC-2000, 4×3 mm ID. Fifty microliters of Enbrel from the syringe (ENBREL® single-use prefilled syringes in 25 mg/0.51 mL of a 50 mg/mL solution of etanercept) is diluted (4:1) (4 parts, 200 mcl of the mobile phase buffer solution to 1 part, 50 mcl Enbrel from syringe). Fifty microliter of the diluted Enbrel is injected and separation was performed at a flow rate of 1.0 ml/min. The mobile phase buffer system included a PHOS. BUFF. SALINE. […] UV detection is performed at 280 nm. […] Aerosol collection and SEC is performed in a similar fashion as for the Enbrel analysis and aerosol collection. […] Fifty microliters of the collected aerosol spray is injected onto the SEC column for analysis, while 50 mcl of the […] insulin solution is injected onto the SEC column for control samples.
On the technique in general: SEC sorts molecules by how far they enter the pores of the column.

Data set [3] relates to patients with cystic fibrosis. The settings on record: cited from earlier work.
Setting [4] is: Enbrel aerosolized with test device.
[5] abbreviates: Enbrel aerosolized, average of S1 and S2.
Setting [6] is: Enbrel diluted 4:1 (10 mg/ml), control (not aerosolized), SEC, UV 280 nm.
[7] abbreviates: aerosolized with test device (20 actuations), SEC.
[8] abbreviates: Insulin aerosolized with test device.

“And” between values parts separate entries of the source, which are not always exact repeats. Identical values can stand only once.

As for etanercept [Enbrel], in data set [1], the “change in electrophoretic mobility (molecular weight) of post-aerosol active agent from control” value (shortened to “change in electrophoretic mobility”) is given as “negligible change”. In data set [2] (setting [4]), the “fraction of the dose forming molecular fragments with elution times of 13 and 25 minutes” value came out at 4.6%; the “fraction structurally unchanged after delivering an aerosol dose” value is 95.4%. Besides, in data set [2] (setting [5]), the “Peak Area %, Peak 4, Avg.” value is 0.3545% and the “Peak Area %, Peak 5, Avg.” value was 4.2755%. For the same compound, in data set [2] (setting [6]), the “Peak Area %, Peak 4” value is reported as 0% and the “Peak Area %, Peak 5” value is 0%.

With bevacizumab, the “change in electrophoretic mobility” value in data set [1] is recorded as “negligible change”.

Take `NC[C@H]1O[C@H](O[C@H]2[C@H](O)[C@@H](O[C@H]3O[C@H](CO)[C@@H](O)[C@H](N)[C@H]3O)[C@H](N)C[C@@H]2N)[C@H](N)C[C@@H]1O` [tobramycin]: in data set [3] (administration by inhalation), the “pulmonary function and kidney side effects” value is reported as “significantly improves pulmonary function without severe side effects to kidney functions”. Also, the “serum levels and kidney toxicity” value in data set [3] (intravenous administration) was “very high serum levels that are toxic to the kidneys”.

As for adalimumab, the “change in electrophoretic mobility” value in data set [1] is listed as “negligible change”.

For Insulin, in data set [2] (setting [7]), the “Peak Area %, Peak 1” value was 27.881% and 28.721%; the “Peak Area %, Peak 2” value is 69.780% and 67.807%; the “Peak Area %, Peak 3” value was 2.184% and 2.797%. Further, in data set [2] (control (not aerosolized), SEC), the “Peak Area %, Peak 1” value is 29.926%; the “Peak Area %, Peak 2” value is recorded as 69.630%; the “Peak Area %, Peak 3” value is given as 0%. Further, in data set [2] (setting [8]), the “fraction of the ejected dose forming a fragment which elutes at ~25 minutes” value is given as 2.5% and the “fraction of the ejected dose structurally unchanged” value came to 97.5%. For the same compound, in data set [2] (Insulin aerosolized, average of S1 and S2), the “Peak Area %, Peak 3, Avg.” value is on record as 2.4905%.

The record behind these values is patent publication US11285274B2, “Methods for the systemic delivery of therapeutic agents to the pulmonary system using a droplet delivery device” (PNEUMA RESPIRATORY, INC., priority 2016, dated 2022).
